From the DeepSol protein solubility set come the findings set out here.

The data set is described as follows: soluble on expression in E. coli; label from the status in PepcDB or PDB records.
With “MGSDKIHHHHHHMQKPHLLITSAGRRAKLVEYFVKEFKTGRVSTADCSPLASALYMADQHYIVPKIDEVEYIDHLLTLCQDEGVTALLTLIDPELGLLAQATERFQAIGVTVIVSPYAACELCFDKYTMYEYCLRQGIAHARTYATMASFEEALAAGEVQLPVFVKPRNGSASIEVRRVETVEEVEQLFSKNTDLIVQELLVGQELGVDAYVDLISGKVTSIFIKEKLTMRAGETDKSRSVLRDDVFELVEHVLDGSGLVGPLDFDLFDVAGTLYLSEINPRFGGGYPHAYECGVNFPAQLYRNLMHEINVPQIGQYLDDIYMLKHDTVTLISAAELQKIKR”, the “soluble on expression in E. coli” value is on record as “not soluble”. In the case of “GMTKPKEPTALDLPMADPLPDETQKYFEICQEKLGMVPNVLKAYAFNVEKLNAFTAMYNDLMLGESQLSKLEREMIAVVVSSINKCFYCLVAHGAAVRQLSGDPQLGEMLVMNYRVAPLDARQRVMLDFAAKMTRASAEIEEADREVLRSHGFNDRDIWDIANVTGFFNMTNRVASATAMMPNAEYHGQFR” it was “soluble”; in that of “LFDRVLVAYDFSKWADRALEYAKFVVKKTGGELHIIHVSEDGDKTADLRVMEEVIGAEGIEVHVHIESGTPHKAILAKREEINATTIFMGSRGAGSVMTMILGSTSESVIRRSPVPVFVCKRGDDE”, “not soluble”; in that of “MRGSHHHHHHGSGSMHQRQTLYQLMDGLNTFYQQSLQQPVATSARQYLEKRGLSHEVIARFAIGFAPPGWDNVLKRFGGNPENRQSLIDAGMLVTNDQGRSYDRFRERVMFPIRDKRGRVIGFGGRVLGNDTPKYLNSPETDIFHKGRQLYGLYEAQQDNAEPNRLLVVEGYMDVVALAQYGINYAVASLGTSTTADHIQLLFRATNNVICCYDGDRAGRDAAWRALETALPYMTDGRQLRFMFLPDGEDPDTLVRKEGKEAFEARMEQAMPLSAFLFNSLMPQVDLSTPDGRARLSTLALPLISQVPGETLRIYLRQELGNKLGILDDSQLERLMPK”, “soluble”.

Consider “GMQLTSENYYSQEANKEYMSVSGYKDFAGTYGKMPCEFYGMEKLNGRWEDEKSTALLVGSYVDSYFEGSLDQFKKDNPEIFTQKGELKANFKQAEEIIARIERDEYFMKYMSGQKQVIMTGELFGAKWKIKMDSYIPGVAIVDLKVMASITDLKWVKDIGYLDFVRYWGYDIQGAVYQEIVRQNTGEKLPFFIAGATKQTEPDIRIIHVTDNYLQEALHMVEMNMPRILRVKNGEVEPDRCELCDCCRHNRVLKKPISIMDLTAGI”, for which the “soluble on expression in E. coli” value is “soluble”. To “MKVAILGASGWIGSHLAAEAKMRGHEVVAVVRDPAKVTLKGVAVQQLDILNPESSLKSVLEGVDAVIASIGGRAAGNHEMVAKTAQRLLNELPQAGVARLLWVGGAGSLEVAPGVKLVTVPGFPEEYKGEALAQGEALEVFRASNSDVNWTFVSPAAEIFPGDKQGQYRVGGDQLLTDSEGNSRISVADYAVALIDELEYAEHPRQRIGVAYLEHHHHHH” belongs “not soluble”. To “MAAHSSAGLLDYVFPTIVSEYYNQAPTKEGYRFASEEPNGSKREEMGVIMNPGTPDEQLVVMGMYSSYDEKTDTETVTMYTADKDGYKARYQIKNRKLSPGALKSAAGLEHHHHHH” belongs “not soluble”. To “MKKAKKEKKEKIIKPDGPINFNRSIMAAFEKQSRGKICPLCETKFSLASYKSHMNTCNVADDDEEIEVIATYTRDEAILMRAGPEIILGDASFSDKSENPTKRRKTDEREVPSEDDIVPEVPGPSGIVKNHEMPSESLDVTEISENIEKVIKKSPEWINHRRRSSRLLQNSQKDQADNANKEDPVKKETATISEVLQAIERFEQRVSGPEQTWPYYIKITIKIMKRVISTEKFDGTFYADDFWLPSDIITFYRFVELLSEGAKCLLVRLFIRKPAWYNLEKLEQKYPEIPNIKEAVSELAKGHFIDDDSSMKTLDEALQISDVVALKNVTKKFKLDGTKNRQELIQSLRKFAQSQQSIFGGTGNVEKSILKSLKQELGPCVRVRGGFVDLFKCLFTIYCPVTTNSANVIDNPSTTNVYQDLLYLMLSVANGTVQFPAPNPCPIIASFYKNRNMLQDYMISKSLEIAIVSQMSNGNLDAALDLAIDAKEFIEQMSDDDKRYYESLEIHERKFTSIWVFTRCCGHASSILERQKKYGMAVEWQKDLLITNKDIQSYCIDSRGIWWDRMLLNLDSHLKEKKECAKMIQIALQDPSILEKELLMIQDRALKLKEMPADFVTPINIGNPEKKTITANVITKSLGDGRINRFMIRDHETDDDVECSVEEVTRRHYLENEGFSTGVHDEGSTWHTLFGLFFYDVIFATDESVESTWLSELQDCPSDLSNTLYSKRKEKFEDRFVWLEEAEQELIEENIRKIWDLKHNETNRECSWKQFPMGAEDCVSFFQCIPRPALILILRRLAENYRNSRSGFPDLTLWNPETKRVAVVEVKGPGDRLSTKQRLWLAIFADSGIRAEVCHVAAQNSRLLV” belongs “not soluble”; to “MTSIEPTHTGKKVIVGMSGGVDSSVSAYLLMQQGYQVEGLFMKNWEEDDNDEYCAAAEDLKDAQAVCDKLGIKLHTVNFAAEYWDNVFEYFLAEYKAGRTPNPDIMCNKEIKFKAFLEFADDILDADYIAMGHYVRRRDNEDGTTQMLRGVDNNKDQSYFLYTLSHEQVARSLFPVGELEKHEVREIAKQMGLITHDKKDSTGICFIGERKFTEFLGNYLPAQPGNIETADGEVIGTHQGLMYHTLGQRKGLGIGGMKNSNDDPWYVVDKDLKRNVLVVGQGGHHPRLMSNGMLVNQLHWVDRKGPINGSQIVVKTRYRQQDIPCTLTYLDDNTLKVVFDEPVAAVTPGQSAVFYDGEVCLGGGIIDQLIRGLEHHHHHH”, “soluble”; to “MLTRLAAVLEERKNAAPDSSYVASLYHKGLNKILEKVGEESVETIIAAKDAAASGDCQDLIYETADLWFHSLVMLSALGQHPQAVLDELERRFG”, “soluble”. For “AHKLFIGGLPNYLNDDQVKELLTSFGPLKAFNLVKDSATGLSKGYAFCEYVDINVTDQAIAGLNGMQLGDKKLLVQRASVGAKNA”, the “soluble on expression in E. coli” value was “soluble”.

Turning to “MNAFNLIIIGDEILHGSSQDKHFAFFKSLLESKGLKLNQVQYLPDEPDLLVRQLRRSFSDGMPTFVTGGIGATPDDHTRQAAAAALDLPVVRHSEAAKFIEGITQKRGEPLDSPEHAQRLKMADFPEGAELVPNPFNNIAGFSIREHYFFPGFPVMAHPMAEWVLETYYADRFNQTERGSRSVYVFEQPESRITPLMEHIEQTYPGVRSYSLPSVGWTHSDGTQVKPHIEFGIKAEGEAVNLLDAAWAEVLHSLDGLGAELKNRVN”, the “soluble on expression in E. coli” value was “not soluble”. In the case of “MTIKTPTVKVPGLGTDPLEQRIKEKEKKWKYKIAVLSGKGGVGKSTVAVNLTAALAKMGYFVGILDADIHGPNVAKMLGVDKEEVYAEKFDDGHFEMIPPTTDFMGQVTPIKVMSMGMMVPEDQPVIWRGPLVTKAIKQLLGDVKWGSLDFMIIDFPPGTGDEILTVVQSIKLDAAIIVTTPQEVALLDTGKAVNMMKKMEVPYVAVVENMSYLICPHCGNKIDIFGEGGGEKLAQKEGVDFLGKIPIDLKAREASDLGIPIVLYEDTPAAKAFMELAEKLVNKLKEIKGDGGKELEHHHHHH” it was “soluble”; in that of “MSKPIQMERGVKYRDADKMALIPIKNMPTEQKEVLRKPEWMKIKLPADSQRIQDIKAAMRKNNLHSVCEEASCPNLAECFNHGTATFMILGAICTRRCPFCDVAHGRPNAPEAEEPKKLAQTIHDMKLKYVVITSVDRDDLRDGGAQHFADCNREIRALNPHIKIETLVPDFRGRMEVALEALKDNPPDVFNHNLETAPRLYRKVRPGANYKWSLELLRQFKEQHPHVPTKSGLMMGLGETKEEIVEVLKDLRAHGVTMLTLGQYLAPSRHHLPVERYVPPAEFDELKEVALELGFTHAACGPFVRSSYHADLQAKGLEVK”, “not soluble”. To “MPQPESENLSVKLFKNHKQALETSGLVPYLPSSLEQLEQSGRTWYRELRRPQWIWQGVDAIELESILARIANSQKHRSRDEWLDTVSGYHSGNWAYEWIHAGMEHQKTASELDGDEAAEAYFKASLYFSVAGYPHIKGDNLAIQSQVLASQAYDMAAKQTSHRVEKILVPYQGRKITCYLHLPNTEKPLPVVIVSGGMDSLQTDMWRLYRDFLAPNNMAMLTLDMPSIGHSSHWPLSEDSSCLHQAVLNYLPNIPWVDRFHAAVMGFRFGGNVALRLSFLEPSRLKACVALGAPVHQILTNSARLKTMPKMYLDVLASRLAKQVVDINSLTSQMQAWSLKNQGFLSGGRKTSVSVLAIGLKDDPVSPKSDNKLAALFSKYGKGVELNSKTLHSGYEEALKQMIEWIKEEMKQ” belongs “not soluble”; to “GEDPAIQVTGARGASVDMSTLDAVTTALDKEHLSHKSIAFENGSILVRFNDTDTQISARDVISEALGKDKIVALNLAPSTPDWLEAIGASPLKLGLDLRGGVHFLMEVDMDAAMEKLVGQQEEAFRSELRDAKIRYRAIRPSGKEGVEVLLRDEEQLAEAKRTLTKNHPDMNFVESDSNGRYALIATFTEQRLQEIRNYAVEQNITILRNRVNELGVAEPLVQRQGASRIVVELPGVQDTARAKEILGATATLEFREVDDKADLAAAANGRAPAGSEIKQDRDGRPVVLKKRVILSGASITDASSSVDEYGRPQVNISLDSEGGNKMSAFSKKNIGKLMATVFAEYKDSGRKTPEGKVILTKHEEVINQATIQSALGRNFRITGIDSAAEAHN”, “not soluble”; to “MGSDKIHHHHHHMPENDFFAGIDAQLDTWEFRTLADAFKPRPPLQYAITGLFTLPSLTIVFGAPGTLKSMLLGSAALHVAGGLPWLGRKVKAFPTMWLDMDNGKRRTDERFEALARHLGLNEGTPFFYISMPTPMFNAGDTGDTEAMVNRMISRGIKLLFIDNLGLISPGADENSDAMVKVMGNLRLLAERTDAAVVIIHHQRKKSKQTQTARTGETLRGHSSIEASLDLALLVEREFDSDIITVHSTKTRDTEVRPFAAEWRYEHKPGTDELETAGFVSAEGENSSETVLEKAIIETVSSNALINQTKLKDDVMKLTGIGRNQVINMIRALEVRKALNVKPGSNNEKLYYIE”, “not soluble”. In the case of “MQVDYQQLNGIALAYLGDAVYEPFIRQHLIESGFTKATKLHHHATHYVSAKAQAALIERMQAEEVLTPTEVDVFKRGRNAKSHTSAKHTDVVTYRISTGFEAVFGYLQLTQQADRIAELAQWCIKQVDEGRVSSVKLEHHHHHH” it was “soluble”; in that of “MGSDKIHHHHHHMKVCILGATGRVGSNIIKLALKDSVEVTALARDSSRVEINHERLRVIEGNVLNENDIKKAIEGSDIVISALGTDQNGTLAKSMPQIIKKMEEEGVRKIITIGTAGILQARTNLNLYRFQSTESKRKSTTAAEEHLAAYKILSSSNLCWTVVCPTHLIDGDVTGIYRTEKDVLPEGGAKITVGDTAQFTWNLCSKNKYENSRVGISY”, “not soluble”.

On to “AHHHHHHGSYEVTKFGGEGKRLEDYREIIGDEALEAIKAKAENLKDKSFVHVNSTSFGGGVAEILHNLVPLMRDVGIDARWFVIEGTNEFFNVTKSFHNALQGNKELRLTEEMKKLYLEINKKNAEDIDLTQFDYVLIHDPQPAPLIEFYEKRQPWIWRCHIDLSDPNLEFWKFLRQFVEKYDRYIFHMEEYVQEDLNQEKVVIMPPSIDPLSEKNMELSESEILKTLERFDVDPERPIITQVARFDPWKGVFDVIDVYRKVKEKIPEVQLLLVGVMAHDDPEGWIYFEKTLRKIGEDYDIKVLTNLTGVHAREVNAFQRASDVILQMSIREGFGLTVTEAMWKEKPVVGRAVGGIKLQIVDGKTGFLVKDVNDAIEKTLYLLEHKDVAQEMGKNAKERIKENFIITKHLERYLDLLNSF”, for which the “soluble on expression in E. coli” value was “soluble”.
